Here are results for 15 molecules from patent publication US20220081480A1 (Merck KGaA, published 2022).

Numbering of substitutions follows the chain as printed.

T1: cyno TIM-3-His6 (cynomolgus monkey)
T1 construct: Made in HEK293 cells; not shown: 6-His tag
T1 chain: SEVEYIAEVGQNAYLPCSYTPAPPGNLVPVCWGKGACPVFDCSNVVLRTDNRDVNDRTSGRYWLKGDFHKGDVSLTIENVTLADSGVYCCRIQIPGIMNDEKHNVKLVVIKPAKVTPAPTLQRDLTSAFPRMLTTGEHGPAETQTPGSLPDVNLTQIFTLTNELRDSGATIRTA

T2: marmoset TIM-3 ECD with 6-His tag (marmoset TIM-3-His6) (marmoset)
T2 construct: Novoprotein Cat# CM64; the entry includes the His tag
T2 chain: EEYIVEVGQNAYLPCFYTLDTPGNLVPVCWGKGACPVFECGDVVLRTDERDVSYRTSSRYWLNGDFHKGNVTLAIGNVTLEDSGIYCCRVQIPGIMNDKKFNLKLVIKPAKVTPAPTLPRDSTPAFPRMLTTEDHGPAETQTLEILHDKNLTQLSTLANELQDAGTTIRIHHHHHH

T3: FCγRIIa (CD32a)_H131 (UniProt P12318 36-218, limits assumed)
T3 construct: Bought
T3 sequence (looked up): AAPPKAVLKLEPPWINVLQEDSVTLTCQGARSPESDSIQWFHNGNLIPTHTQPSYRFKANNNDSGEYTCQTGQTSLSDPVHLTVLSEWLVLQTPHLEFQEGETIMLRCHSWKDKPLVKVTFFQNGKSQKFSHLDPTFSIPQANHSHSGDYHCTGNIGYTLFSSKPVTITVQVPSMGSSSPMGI

B1: 27.12E12 (antibody, V domains shown)
VH: EVQLQQSGAELVRPGALVKLSCKASGFNIKDYYMYWMKQRPEQGLEWIGWIDPENVKTIYDPKFQGRATLTADTSSNTAYLQLSSLTSEDTAVYYCTRDFGYVGFFDVWGAGTTVTVSS
VL: DIVMTQSQKFMSTSVGDRVSVNCKASQNVGTNVVWYQQKPGQSPKALIYSASYRYSGVPDRFTGSGSGTDFTLTISTVQSEDLAEYFCQQYNSYPLTFGGGTKLEIKR
B2: 3903E11 (VH1.0, VL1.1) (antibody, human IgG1, lambda)
heavy: not shown
light: QSALTQPRSVSGSPGQSVTISCTGTSSDVGGYNYVSWYQQHPGKAPKLMIFDVSKRPSGVPDRFSGSKSGNTASLTISGLQAEDEADYYCSSYADSVVFGGGTKVTVLGQPKAAPSVTLFPPSSEELQANKATLVCLISDFYPGAVTVAWKADSSPVKAGVETTTPSKQSNNKYAASSYLSLTPEQWKSHKSYSCQVTHEGSTVEKTVAPTECS
notes: Pair-wise combination of parental heavy chain and VL1.1-CL; IgG1 lambda
B3: 3903E11 (VL1.3,VH1.2) IgG1 (antibody)
heavy: not shown
light: B2 light with F51Y
notes: also called 3903E11 (VH1.2, VL1.3); anti-TIM3-3903E11(VL1.3, VH1.2)-IgG1; copies: 2 + 2
B4: 3903E11 (VH1.3, VL1.3) (antibody, IgG1)
heavy: not shown
light: B2 light with F51Y
notes: IgG1 lambda
B5: 3903E11 (VH1.0, VL1.2) (antibody, human IgG1, lambda)
heavy: not shown
light: B2 light with Q1S, S2Y, A3E, F51Y
notes: IgG1 lambda
B6: 3903E11 (VH1.1, VL1.1) (antibody, human IgG1, lambda)
heavy: not shown
light: B2 light
notes: IgG1 lambda
B7: 3903E11 (VH1.3, VL1.0) (antibody, human IgG1, lambda)
heavy: not shown
light: B2 light with Q1S, S2Y, A3E
notes: IgG1 lambda
B8: 3903E11 (VH1.3, VL1.1) (antibody, human IgG1, lambda)
heavy: not shown
light: B2 light
notes: IgG1 lambda
B9: 3903E11 (VH1.3, VL1.2) (antibody, human IgG1, lambda)
heavy: not shown
light: B2 light with Q1S, S2Y, A3E, F51Y
notes: IgG1 lambda
B10: 3903E11 (VH1.1, VL1.3) (antibody, IgG1)
heavy: not shown
light: B2 light with F51Y
notes: IgG1 lambda
B11: 3903E11 (VH1.2, VL1.0) (antibody, human IgG1, lambda)
heavy: not shown
light: B2 light with Q1S, S2Y, A3E
notes: IgG1 lambda
B12: 3903E11 (VH1.2, VL1.2) (antibody, human IgG1, lambda)
heavy: not shown
light: B2 light with Q1S, S2Y, A3E, F51Y
notes: IgG1 lambda
B13: 3903E11 (VH1.0, VL1.3) (antibody, IgG1)
heavy: not shown
light: B2 light with F51Y
notes: IgG1 lambda
B14: 3903E11 (VH1.2, VL1.1) (antibody, human IgG1, lambda)
heavy: not shown
light: B2 light
notes: IgG1 lambda
B15: anti-TIM-3 (A16-019-1) (antibody)
heavy: not shown
light: B2 light with F51Y
notes: Said to be identical to M6903 but produced in Expi293F, not CHOK1SV, cells

The first assay deals with T4, wild-type TIM-3 (hu TIM-3), HEK-expressed (human, UniProt Q8TDQ0 22-202, limits assumed).
T4 construct: Soluble protein of the mutagenesis study
Put plainly: SPR. A general note: SPR reads the build-up and loss of mass on a sensor chip optically.
As for B1, binding was put at a Kd of 51.6 nM.

For the next assay, the target named is T5, human TIM-3 ECD with 6-His tag (hu TIM-3-His6) (human, UniProt Q8TDQ0 22-200).
T5 construct: Novoprotein Cat# C356; the entry includes the His tag; also called hTIM3-His; human TIM3-His6
Briefly: SPR (Biacore).
For the molecule B2, the dissociation constant (Kd) (in general, the constant that tells how readily two partners part at equilibrium) was found to be 2.7 nM.
On the same count and under the same terms, for B3 the value was 1.6 nM.
Molecule B4 returned a Kd of 4.5 nM.
B5: the Kd stood at 3.4 nM.
The same measure, in the same setting: for B6 the value was 7.6 nM; for B7, 6.4 nM; for B8, 4.7 nM.
On the same count and under the same terms, the result for B9 reads 6 nM; that for B10, 7.4 nM; that for B11, 2.2 nM.
The same measure, in the same setting: the result for B12 reads 1.6 nM; that for B13, 2.7 nM; that for B14, 1.8 nM.

For a further assay, the target named is T1, cyno TIM-3-His6. Put plainly: SPR (Biacore).
With B2, the Kd is 6.5 nM.
Same read-out and setting: for B3 the value was 5.3 nM.
The molecule B5 showed a Kd of 8.6 nM.
B6 displayed an equilibrium dissociation constant (Kd) of 17.9 nM. This Kd is about 2.1-fold higher than that of the molecule before.
Still for that read-out and setting: the result for B7 reads 19.3 nM; that for B8, 19.5 nM; that for B9, 19.9 nM.
The same measure, in the same setting: for B10 the value was 22.3 nM; for B11, 5.5 nM.
As for B12, the affinity, expressed as Kd, was 6.3 nM. The Kd values of the last two molecules are within 1.5-fold of each other.
The same measure, in the same setting: the result for B13 reads 6.7 nM; that for B14, 5.6 nM.

A further assay addresses T5, human TIM-3 ECD with 6-His tag (hu …). Put plainly: ELISA, antigen coated.
As to B3, a half-maximal response (EC50) required 0.01 nM.

A further assay deals with T1, cyno TIM-3-His6. Put plainly: ELISA, antigen coated. On the technique in general: In an ELISA, binding on a coated surface is turned into a signal by an enzyme label.
In the case of B3, the EC50 (commonly the concentration at which the effect is half-maximal) was found to be 0.02 nM.

For a further assay, the target named is T2, marmoset TIM-3 ECD with 6-His tag …. Put plainly: ELISA, antigen coated.
As to B3, a half-maximal effect (EC50) was put at 0.01 nM.

The next assay has as its target T3, FCγRIIa (CD32a)_H131. Put plainly: BLI (Octet), steady state. Background: Biolayer interferometry detects binding as a change in optical thickness at a sensor tip.
As to B3, the Kd stood at 630 nM.

The next assay concerns the target T6, FCγRIIIa (CD16a)_V158 (UniProt P08637 17-208).
T6 construct: Bought
Put plainly: BLI (Octet), steady state.
B3 showed an equilibrium dissociation constant (Kd) of 100 nM.

Another assay concerns the target FcRn (UniProt P55899 24-297; P61769 21-119, limits assumed). Put plainly: BLI (Octet), steady state.
In turn, B3 gave a dissociation constant (Kd) of 805 nM.

For a further assay, the target named is T7, human TIM-3 on huTIM-3-CHO-S cells (human, UniProt Q8TDQ0 22-202).
T7 construct: Membrane-anchored human TIM-3 ECD (NP_116171) stably expressed on CHO-S cells; also called CHO-S-hTIM3; CHO-S-hTIM-3; not shown: membrane anchor of the expression vector, not described
Briefly: FACS on CHO-S-hTIM-3 cells.
Regarding B2, the “MFI at 0.1 µg/ml” value came out at 148 MFI, the “MFI at 1 µg/ml” value worked out at 1460 MFI and the “MFI at 10 µg/ml” value worked out at 1870 MFI.
With B3, the “MFI at 0.1 µg/ml” value amounted to 140 MFI, the “MFI at 1 µg/ml” value stood at 1310 MFI and the “MFI at 10 µg/ml” value is 1910 MFI.
Turning to B4, the “MFI at 0.1 µg/ml” value amounted to 82 MFI and the “MFI at 1 µg/ml” value is 1020 MFI.
Take B5: the “MFI at 0.1 µg/ml” value came out at 140 MFI, the “MFI at 1 µg/ml” value worked out at 1340 MFI and the “MFI at 10 µg/ml” value is 1930 MFI.
For the molecule B6, the “MFI at 0.1 µg/ml” value was 154 MFI and the “MFI at 1 µg/ml” value worked out at 1390 MFI.
In the case of B7, the “MFI at 0.1 µg/ml” value was 105 MFI and the “MFI at 1 µg/ml” value was determined as 957 MFI.
Take B8: the “MFI at 0.1 µg/ml” value was 105 MFI and the “MFI at 1 µg/ml” value was determined as 1050 MFI.
For B9, in that order: 87 MFI and 958 MFI.
As to B11, the “MFI at 0.1 µg/ml” value was determined as 156 MFI, the “MFI at 1 µg/ml” value stood at 1510 MFI and the “MFI at 10 µg/ml” value is 1950 MFI.
With B12, the “MFI at 0.1 µg/ml” value was 114 MFI, the “MFI at 1 µg/ml” value was determined as 1300 MFI and the “MFI at 10 µg/ml” value came out at 1900 MFI.
For B13, in that order: 162 MFI, 1540 MFI and 1930 MFI.
The like results for B14 were, in that order, 148 MFI, 1400 MFI and 1930 MFI.

Another assay addresses T7, human TIM-3 on huTIM-3-CHO-S cells. Put plainly: flow cytometry on CHO-S-hTIM-3 cells.
In the case of B3, the EC50 stood at 2.6 nM.

For another assay, the target named is T5, human TIM-3 ECD with 6-His tag (hu …). Put plainly: SPR, antibody captured, TIM-3 as analyte.
In turn, B3 registered a Kd of 2.4 nM. In other words, the single-digit nanomolar range.

The target in another assay is T1, cyno TIM-3-His6. Put plainly: SPR, antibody captured, TIM-3 as analyte.
B3 gave a Kd of 14 nM. In other words, the double-digit nanomolar range.

In a further assay the target is T2, marmoset TIM-3 ECD with 6-His tag …. Put plainly: SPR, antibody captured, TIM-3 as analyte.
B3: binding was put at a Kd of 11 nM.

For a further assay, the target named is T8, FCγRI (CD64) (UniProt P12314 16-288).
T8 construct: Bought
Briefly: BLI (Octet), antibody on FAB2G tips, kinetic fit.
In turn, B3 displayed a dissociation constant (Kd) of 1.7 nM.

Another assay concerns the target T5, human TIM-3 ECD with 6-His tag (hu …). Put plainly: SPR (Biacore), relative to 3903E11 (VH1.0, VL1.0).
In the case of B2, the “Human TIM3 KD Ratio to Parent” value came out at 0.78.
On the same count and under the same terms, for B11 the value was 0.62.
Same read-out and setting: for B14 the value was 0.52.

In the next assay the target is T9, human TIM-3 ECD fused to human IgG1 Fc domain (huTIM-3-Fc) (human, UniProt Q8TDQ0 22-202).
T9 construct: extracellular domain; Bought; Biotinylated (Sulfo-NHS-LC-Biotin) in the galectin-9 ELISAs; also called Human-TIM3-biotin; huTIM-3-Fc-biotin; not shown: human IgG1 Fc domain
Briefly: competition ELISA: huTIM-3-Fc-biotin (1 µg/ml) binding to coated galectin-9.
Turning to B3, the half-inhibitory concentration (IC50) (usually the concentration that inhibits the measured activity by half) was found to be 2.4 nM.

The target of the next assay is T10, human TIM-3 on primary human blood cells (CD14+ monocytes in whole blood; PBMCs) (human, UniProt Q8TDQ0 22-301).
T10 construct: whole, on cells; Endogenous receptor on donor cells; also called TIM-3 on CD14+ monocytes
Put plainly: target occupancy on CD14+ monocytes in human whole blood, flow cytometry; free TIM-3 detected with competing anti-TIM-3(2E2)-APC.
B15 showed a concentration giving a half-maximal response (EC50) of 0.111 mg/L.

Another assay concerns the target T10, human TIM-3 on primary human blood …. Briefly: flow cytometry on fresh human whole blood, CD14+ monocytes; unoccupied TIM-3 detected with the competing anti-TIM-3 (2E2)-APC; donor KP46233.
As for B15, the EC50 (read off the curve) (in general, the concentration at which the effect is half-maximal) is around 0.04 mg/L.

The target is the same in the next assay. Put plainly: flow cytometry on fresh human whole blood, CD14+ monocytes; unoccupied TIM-3 detected with the competing anti-TIM-3 (2E2)-APC; donors KP46231, KP46315, KP46318 (not separated).
As for B15, the concentration for a half-maximal effect (EC50 (read off the curve)) is around 0.07 mg/L.
